Patent US12460006B2, “Antibodies against integrin alpha 11 beta 1” (Momenta Pharmaceuticals, Inc., priority 2019, dated 2025)
Changes are numbered by the printed parent chain.

T1: α11β1 I Domain (Homo sapiens, UniProt Q9UKX5)
T1 sequence (Q9UKX5 164-345 limits assumed): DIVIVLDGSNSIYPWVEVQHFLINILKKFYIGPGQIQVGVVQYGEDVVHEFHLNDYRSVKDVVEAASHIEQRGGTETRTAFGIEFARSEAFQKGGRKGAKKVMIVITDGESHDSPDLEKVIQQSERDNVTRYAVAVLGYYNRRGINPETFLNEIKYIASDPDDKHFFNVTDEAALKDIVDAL

B1: 1994_01_C07: fully human anti-α11β1 mAb (phage display); HCDR3 SEQ ID NO: 267, LCDR3 SEQ ID NO: 271 (antibody, V domains shown)
VH: QVQLVQSGAEVKKPGASVKVSCKASGYTFTSYGISWVRQAPGQGLEWMGWISAYNGNTNYAQKLQGRVTMTTDTSTSTAYMELRSLRSDDTAAYYCARVTGITGTTIDPWGQGTMVTVSS
VL: DIQMTQSPSSLSASVGDRVTITCRASQSISSYLNWYQQKPGKAPKLLIYDASSLESGVPSRFSGSGSGTEFTLTISSLQPDDFAVYYCQQYNNWPQTFGQGTKVEIK
B2: 1994_01_D12: fully human anti-α11β1 mAb (phage display); HCDR3 SEQ ID NO: 267, LCDR3 SEQ ID NO: 334 (antibody, V domains shown)
VH: B1 VH with A16S, D73N, A93V, M115L
VL: DIQMTQSPSSLSASVGDRVTITCRASQSISSYLNWYRQKPGKAPKLLIYAASSLQSGVPSRFSGSGSGTDFTLTISSLQPEDAATYYCQQYDSQSGTFGQGTKLEIK

Key:
[1] = test system: CHO-K1 cells expressing human α11; experiment: Cell adhesion inhibition (xCelligence), type I collagen; assay type: cell-based; conditions: CHO-K1 hu α11 cells; read-out: IC50 of blocking cell adhesion to type I collagen
Procedure: 0.6×10^6 cells/mL were incubated with each antibody at a range of concentrations for 20 minutes at 37° C. E-Plate VIEW 96 PET plate coated with 100 ng/mL type I collagen or PBS overnight at room temperature was blocked in 3% BSA for 1 house at room temperature. After washing the plate with PBS, cell and antibody mixture was added to the wells and the plate was places into an xCelligence machine. Cell adhesion was recorded over 6 hours. The time point of maximum cell adhesion was used for comparison relative to control.
A CHO-K1 hu α11 cell line was used to assess the ability of mAbs to block α11β1-mediated binding to type I collagen. […] In the “Untreated” condition, cells were plated on type I collagen but no antibody was added and in the “Uncoated” condition, cells were seeded onto BSA-coated wells containing no type I collagen. Statistics were performed using one-way ANOVA followed by Dunnett's multiple comparisons test. […] Therefore, it is possible that these mAbs bind on an α11β1 domain that keeps the integrin in a low or intermediate affinity state. […] Nine human mAbs were also tested for their ability to inhibit the binding of human CHO-α11 cells to type I collagen.

[2] = test system: CHO cell lines expressing α11; experiment: Collagen gel contraction assay; assay type: cell-based, human; conditions: vs untreated
Procedure: 24-well plates were blocked with 2% BSA in PBS overnight at 37° C. The following day, the plates were washed 3 times with PBS before being used in the assay. Human CHO cell lines expressing α11 were harvested and resuspended at 1.25×10^6 in ExpiCHO Expression Medium (Gibco™ Cat #A2910002). The collagen gel solution was prepared by diluting 3 mg/mL stock collagen type I (Gibco™ Collagen I Rat Protein, Tail Cat #A1048301) to 1 mg/mL in the media containing the CHO cells. Sodium hydroxide was added to the solution to neutralize the pH and 400 μL of the collagen solution was added to each well of the 24-well plates. For the wells where the antibodies were included in the collagen gel solution, CHO cells were prepared at 2.5×10^6 and the antibodies were prepared at 2× final concentration in ExpiCHO media. The cells and antibodies were then combined 1:1 before the addition of the stock collagen type 1. The gels were allowed to polymerize for 60 minutes at 37° C. Antibodies were added to the ExpiCHO media, which was then layered on top of the polymerized gel (400 μL/well). The gels were incubated for 6 days at 37° C. before gel contraction was quantified. Images of each well were analyzed using Image J and gel contraction was determined as a percentage of the initial gel area.
Selected exemplary antibodies were tested for the ability to inhibit cell-mediated 3D gel contraction because this ability is directly linked to the functionality of the exemplary antibodies.

α11β1 I Domain = target: T1, α11β1 I Domain; experiment: SPR binding to α11β1 I Domain; conditions: SPR data
Procedure: (§1) The affinity of antibodies for human α11β1 was measured by surface plasmon resonance assay (SPR). Affinity was measured at pH 7.6 and 25° C. with a Biacore T200 instrument. Anti-HIS antibody was immobilized on the SPR sensor surface using EDC/NHS covalent attachment. HIS-tagged human α11β1 was captured on the sensor surface and a single-cycle kinetics assay was used. Increasing concentrations of test antibody were injected in series over the sensor-bound α11β1. Dissociation was monitored for 1000 seconds. A sensor surface with only anti-HIS antibody and a series of blank injections were used to double-reference subtract the data. A 1:1 Langmuir model was fit to the data to estimate the kinetic association and dissociation constants. The affinity (equilibrium dissociation constant) of the interaction was calculated by dividing the kinetic dissociation constant by the kinetic association constant. Between injection cycles α11β1 and bound antibody were removed with an injection of 10 mM glycine at pH 1.5.
(§2) The binding affinity of antibodies for the α11β1 Headpiece and α11β1 I Domain as measured by SPR is shown in FIG. 10A and FIG. 10B, respectively.

α11β1 Headpiece = experiment: SPR binding to α11β1 Headpiece; design: species or system human; conditions: SPR data
Procedure: as §1, §2

Molecule | IC50 [1] [nM] | inhibition of CHO-hu α11-mediated collagen gel contraction [2] | binding to the I domain of α11β1 (α11β1 I Domain) | binding to the headpiece domain of α11β1 (α11β1 Headpiece)
B1 | 3.3 | inhibited CHO-hu α11-mediated collagen gel contraction | do not bind | do not bind
B2 | – | inhibited CHO-hu α11-mediated collagen gel contraction | – | –
